Assay results reported in PMC5040351 (Arteriosclerosis, thrombosis, and vascular biology, 2016).

Tests used:
[1] = target: endogenous calnexin (CNX) (human (endogenous in HEK293T and HeLa)) (UniProt P27824); test: co-IP
[2] = target: ABCA1-FLAG (ATP-Binding Cassette A1 cholesterol transporter, FLAG-tagged) (UniProt O95477); test: co-IP
[3] = target: HA-tagged calnexin with deletion of the lumenal repeat segment (CNXΔ276-409) (UniProt P27824); test: co-IP
[4] = target: myristoylated NefSF2 protein (HIV-1 SF2, UniProt P03407 1-210, myristoylated); test: SPR

Nef K4A (single lysine mutant of Nef_(cons)) (natural protein)
percent reduction of co-precipitated Nef against WT Nef [1]: 80%

Nef K4,7A (double lysine mutant of Nef_(cons)) (natural protein)
percent reduction of co-precipitated Nef against wild-type Nef [2]: 30%

HIV-1 Nef expressed from the Nef_(cons) vector (wild type) (natural protein)
percent reduction of co-precipitated Nef against WT CNX [3]: 40%

Nef K7A (single lysine mutant of Nef_(cons)) (natural protein)
percent reduction of co-precipitated Nef against WT Nef [1]: 70%

B1: cytoplasmic tail of calnexin (CNX-CT), recombinant (domain or fragment, UniProt P27824 503-592, looked up)
chain: CSGKKQTSGMEYKKTDAPQPDVKEEEEEKEEEKDKGDEEEEGEEKLEEKQKSDAEEDGGTVSQEEEDRKPKAEEDEILNRSPRNRKPRRE
Kd [4]: 9.4 nM
koff [4]: 0.00857 s⁻¹
kon [4]: 908000 M⁻¹ s⁻¹
